In experiment [1] the target is hPDL1 (human, UniProt Q9NZQ7 19-238). The experiment is described as follows: ELISA of Test Example 4 of WO2021139758. Background: In an ELISA, binding on a coated surface is turned into a signal by an enzyme label.
The target of experiment [2] is hCTLA4 (human, UniProt P16410 36-161). The experiment can be described thus: ELISA of Test Example 4 of WO2021139758.
Experiment [3] addresses T1, human CGRP (human, UniProt P06881 83-119).
T1 peptide (looked up): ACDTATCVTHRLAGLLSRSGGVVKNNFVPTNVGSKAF
The experiment is described as follows: ELISA, coated CGRP. The protocol:
(§1) In this test example, the abilities of the chimeric antibodies and humanized antibodies of C1 #, C9 #, C21 #, and C28 #to bind to human CGRP and rat CGRP were assessed using ELISAs. Plates were coated with […] human CGRP and rat CGRP, respectively, and blocked, and the antibodies, serially diluted, were then added. The plates were incubated for 1 h and washed, and a horseradish peroxidase-labeled anti-human Fc secondary antibody was then added. After incubation, color development was performed. […] The plates were incubated for 1 h and washed, and the antibodies, serially diluted, were then added. The plates were incubated for 1 h and washed, and a horseradish peroxidase-labeled streptavidin secondary antibody was then added. After incubation, color development was performed.

Experiment [4] deals with T2, rat CGRP (rat, UniProt P01256 83-119).
T2 peptide (looked up): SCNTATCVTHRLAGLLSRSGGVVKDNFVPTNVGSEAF
The experiment is described as follows: ELISA, coated CGRP. The protocol: as §1

Sequence of hCTLA4 (P16410 36-161 limits assumed): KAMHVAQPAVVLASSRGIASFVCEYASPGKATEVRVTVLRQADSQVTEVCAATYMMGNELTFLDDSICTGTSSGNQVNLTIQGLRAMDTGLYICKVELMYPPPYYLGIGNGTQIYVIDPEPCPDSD
Sequence of hPDL1 (Q9NZQ7 19-238 limits assumed): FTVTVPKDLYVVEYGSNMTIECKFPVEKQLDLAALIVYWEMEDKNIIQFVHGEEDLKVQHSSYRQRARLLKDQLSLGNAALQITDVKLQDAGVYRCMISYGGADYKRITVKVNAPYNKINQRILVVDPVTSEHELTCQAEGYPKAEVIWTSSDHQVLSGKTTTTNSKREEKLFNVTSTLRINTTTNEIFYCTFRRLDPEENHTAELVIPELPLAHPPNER

B1: PL-1 (bispecific antibody)
chain 1: not shown
chain 2: DIVLTQSPASLAVSPGQRATITCRASESVSIHGTHLMHWYQQKPGQPPKLLIYAASKLESGVPARFSGSGSGTDFTLTINPVEAEDTANYYCQQSFEDPLTFGQGTKLEIKGGGGSGIPPKIECLPIDISIDEGKVLTVASAFTGEPTPEVTWSTGGRKIHSQEQGRFHIENTDDLTTLIIKDVQKQDGGLYTLTLRNEFGSDSATVNIHIRSI
chain 3: not shown
chain 4: not shown
In general, EC50 refers to the concentration at which the effect is half-maximal. Low values mean a more potent agent, high ones a less potent agent. For B1, the EC50 in experiment [1] stood at 1.6 nM; in experiment [2], 16.5 nM.

B2: PL-10 (bispecific antibody)
chain 1: not shown
chain 2: DIVLTQSPASLAVSPGQRATITCRASESVSIHGTHLMHWYQQKPGQPPKLLIYAASKLESGVPARFSGSGSGTDFTLTINPVEAEDTANYYCQQSFEDPLTFGQGTKLEIKGGGGSGIPPKIECLPIDISIDEGKVLTVASCFTGEPTPEVTWSTGGRKIHSQEQGRFHIENTDDSTTLTIKDVQKQDGGLYTLTLRNEFGSDSATVNIHIRSI
chain 3: not shown
chain 4: not shown
Take B2: the half-maximal effective concentration (EC50) in experiment [1] amounted to 0.6 nM; in experiment [2] it was 6.9 nM.

B3: PL-4 (bispecific antibody)
chain 1: not shown
chain 2: DIVLTQSPASLAVSPGQRATITCRASESVSIHGTHLMHWYQQKPGQPPKLLIYAASKLESGVPARFSGSGSGTDFTLTINPVEAEDTANYYCQQSFEDPLTFGQGTKLEIKGGGGSGIPPKIECLPIDISIDEGKVLTVASCFTGEPTPEVTWSTGGRKIHSQEQGRFHIENTDDSTTLTIKDVQKQDGGLYTLTLRNEFGSDSATVNIHIRSI
chain 3: not shown
chain 4: not shown
For the molecule B3, the EC50 in experiment [1] is 0.7 nM; in experiment [2], 6.5 nM.

B4: PL-8 (bispecific antibody)
chain 1: not shown
chain 2: DIVLTQSPASLAVSPGQRATITCRASESVSIHGTHLMHWYQQKPGQPPKLLIYAASKLESGVPARFSGSGSGTDFTLTINPVEAEDTANYYCQQSFEDPLTFGQGTKLEIKGGGGSGIPPKIECLPIDISIDEGKVLTVASAFTGEPTPEVTWSTGGRKIHSQEQGRFHIENTDDSTTLTIKDVQKQDGGLYTLTLRNEFGSDSATVNIHIRSI
chain 3: not shown
chain 4: not shown
Turning to B4, the 50% effective concentration (EC50) was 1.4 nM in experiment [1] and 14.5 nM in experiment [2].

B5: PL-7 (bispecific antibody)
chain 1: not shown
chain 2: DIVLTQSPASLAVSPGQRATITCRASESVSIHGTHLMHWYQQKPGQPPKLLIYAASKLESGVPARFSGSGSGTDFTLTINPVEAEDTANYYCQQSFEDPLTFGQGTKLEIKGGGGSGIPPKIECLPIDISIDEGKVLTVASCFTGEPTPEVTWSTGGRKIHSQEQGRFHIENTDDSTTLTIKDVQKQDGGLYTLTLRNEFGSDSATVNIHIRSI
chain 3: not shown
chain 4: not shown
Take B5: the EC50 was found to be 0.5 nM in experiment [1] and 7.3 nM in experiment [2].

B6: PL-5 (bispecific antibody)
chain 1: not shown
chain 2: DIVLTQSPASLAVSPGQRATITCRASESVSIHGTHLMHWYQQKPGQPPKLLIYAASKLESGVPARFSGSGSGTDFTLTINPVEAEDTANYYCQQSFEDPLTFGQGTKLEIKGGGGSGIPPKIECLPIDISIDEGKVLTVASAFTGEPTPEVTWSTGGRKIHSQEQGRFHIENTDDSTTLTIKDVQKQDGGLYTLTLRNEFGSDSATVNIHIRSI
chain 3: not shown
chain 4: not shown
With B6, the EC50 is 0.7 nM in experiment [1] and 6.7 nM in experiment [2].

B7: PL-3 (bispecific antibody)
chain 1: not shown
chain 2: DIVLTQSPASLAVSPGQRATITCRASESVSIHGTHLMHWYQQKPGQPPKLLIYAASKLESGVPARFSGSGSGTDFTLTINPVEAEDTANYYCQQSFEDPLTFGQGTKLEIKGGGGSGIPPKIECLPIDISIDEGKCLTVASAFTGEPTPEVTWSTGGRKIHSQEQGRFHIENTDDSTTLTIKDVQKQDGGLYTLTLRNEFGSDSATVNIHIRSI
chain 3: not shown
chain 4: not shown
For the molecule B7, the EC50 in experiment [1] came to 0.6 nM; in experiment [2], 7.9 nM.

B8: PL-2 (bispecific antibody)
chain 1: not shown
chain 2: DIVLTQSPASLAVSPGQRATITCRASESVSIHGTHLMHWYQQKPGQPPKLLIYAASKLESGVPARFSGSGSGTDFTLTINPVEAEDTANYYCQQSFEDPLTFGQGTKLEIKGGGGSGIPPKIECLPIDISIDEGKVLTVASAFTGEPTPEVTWSTGGRKIHSQEQGRFHIENTDDSTTLTIKDVQKQDGGLYTLTLRNEFGSDSATVNIHIRSI
chain 3: not shown
chain 4: not shown
Take B8: the results for the concentration for a half-maximal effect (EC50) in experiment [1] and in experiment [2] were 0.5 nM and 8 nM, respectively.

B9: PL-6 (bispecific antibody)
chain 1: not shown
chain 2: DIVLTQSPASLAVSPGQRATITCRASESVSIHGTHLMHWYQQKPGQPPKLLIYAASKLESGVPARFSGSGSGTDFTLTINPVEAEDTANYYCQQSFEDPLTFGQGTKLEIKGGGGSGIPPKIECLPIDISIDEGKCLTVASAFTGEPTPEVTWSTGGRKIHSQEQGRFHIENTDDSTTLTIKDVQKQDGGLYTLTLRNEFGSDSATVNIHIRSI
chain 3: not shown
chain 4: not shown
Take B9: the EC50 in experiment [1] turned out to be 0.8 nM; in experiment [2] it was 5.3 nM.

B10: PL-11 (bispecific antibody)
chain 1: not shown
chain 2: DIVLTQSPASLAVSPGQRATITCRASESVSIHGTHLMHWYQQKPGQPPKLLIYAASKLESGVPARFSGSGSGTDFTLTINPVEAEDTANYYCQQSFEDPLTFGQGTKLEIKRTVASGIPPKIECLPIDISIDEGKVLTVASAFTGEPTPEVTWSTGGRKIHSQEQGRFHIENTDDSTTLTIKDVQKQDGGLYTLTLRNEFGSDSATVNIHIRSI
chain 3: not shown
chain 4: not shown
On to B10, for which the EC50 in experiment [1] turned out to be 0.6 nM; in experiment [2], 5.6 nM.

B11: PL-9 (bispecific antibody)
chain 1: not shown
chain 2: DIVLTQSPASLAVSPGQRATITCRASESVSIHGTHLMHWYQQKPGQPPKLLIYAASKLESGVPARFSGSGSGTDFTLTINPVEAEDTANYYCQQSFEDPLTFGQGTKLEIKGGGGSGIPPKIECLPIDISIDEGKCLTVASAFTGEPTPEVTWSTGGRKIHSQEQGRFHIENTDDSTTLTIKDVQKQDGGLYTLTLRNEFGSDSATVNIHIRSI
chain 3: not shown
chain 4: not shown
For the molecule B11, the concentration giving a half-maximal response (EC50) in experiment [1] turned out to be 0.6 nM; in experiment [2], 5.5 nM.

B12: PL-12 (bispecific antibody)
chain 1: not shown
chain 2: DIVLTQSPASLAVSPGQRATITCRASESVSIHGTHLMHWYQQKPGQPPKLLIYAASKLESGVPARFSGSGSGTDFTLTINPVEAEDTANYYCQQSFEDPLTFGQGTKLEIKRTVASGIPPKIECLPIDISIDEGKCLTVASAFTGEPTPEVTWSTGGRKIHSQEQGRFHIENTDDSTTLTIKDVQKQDGGLYTLTLRNEFGSDSATVNIHIRSI
chain 3: not shown
chain 4: not shown
With B12, the concentration giving a half-maximal response (EC50) in experiment [1] turned out to be 0.5 nM; in experiment [2], 8 nM.

B13: C9H6L1 (antibody, human IgG1, kappa, V domains shown)
VH: EVQLVQSGAEVKKPGASVKVSCKASGYTFTDYYMNWVRQAPGQRLEWIGVINPYSGRTTYNRKFKGRATLTVDKSASTAYMELSSLRSEDTAVYYCASLLIRPHYFDYWGQGTTVTVSS
VL: DIQMTQSPSSLSASVGDRVTITCKASQNVGTNVAWYQQKPGKSPKALIYSASYRYSGVPSRFSGSGSGTDFTLTISSLQPEDVATYHCQQYNFYPYTFGQGTKLEIKR
For the molecule B13, the EC50 came out at 1.33 nM in experiment [3] and 3.13 nM in experiment [4].

B14: C28H1L1 (antibody, human IgG1, kappa, V domains shown)
VH: EVQLVQSGAEVKKPGASVKVSCKASGYTFTDYYMNWVRQAPGQRLEWMGDINPNNVVTTYNQKFKGRVTITVDKSASTAYMELSSLRSEDTAVYYCASIIIVPDYFDYWGQGTTVTVSS
VL: DIQMTQSPSSVSASVGDRVTITCKASQNVGSNVAWYQQKPGKSPKALIYSASYRYSGVPSRFSGSGSGTDFTLTISSLQPEDFATYYCQQYNSYPYTFGGGTKVEIKR
With B14, the half-maximal effective concentration (EC50) amounted to 1.34 nM in experiment [3] and 6.28 nM in experiment [4].

B15: C9H7L1 (antibody, human IgG1, kappa, V domains shown)
VH: EVQLVQSGAEVKKPGASVKVSCKASGYTFTDYYMNWVRQAPGQRLEWMGVINPYTGRTTYNRKFKGRVTITVDKSASTAYMELSSLRSEDTAVYYCASLLIRPHYFDYWGQGTTVTVSS
VL: DIQMTQSPSSLSASVGDRVTITCKASQNVGTNVAWYQQKPGKSPKALIYSASYRYSGVPSRFSGSGSGTDFTLTISSLQPEDVATYHCQQYNFYPYTFGQGTKLEIKR
On to B15, for which the EC50 worked out at 1.3 nM in experiment [3] and 3.57 nM in experiment [4].
